Reference: US20140087995A1 (published 2014)
Numbered stars: 1 amine (or outer) side, 2 acyl side, 3 side chain; on linkers, the order of the positions; unused ones are H or OH. Bridge positions count the residues as written; N and C are the ends. Side chains are listed from the residue outwards. Ends that are not written are not given here. * marks the point of attachment. C20 diacid = O=C(O)CCCCCCCCCCCCCCCCCCC(=O)*; γGlu = O=C(O)[C@H](CCC(=O)[*:2])N[*:1]

T1: human calcitonin receptor (human, UniProt P30988 25-474)
T1 construct: whole, on cells; Membranes of BHK cells stably transfected with the human calcitonin receptor (Assay VII); also called hCTR; hCT
T1 sequence (looked up): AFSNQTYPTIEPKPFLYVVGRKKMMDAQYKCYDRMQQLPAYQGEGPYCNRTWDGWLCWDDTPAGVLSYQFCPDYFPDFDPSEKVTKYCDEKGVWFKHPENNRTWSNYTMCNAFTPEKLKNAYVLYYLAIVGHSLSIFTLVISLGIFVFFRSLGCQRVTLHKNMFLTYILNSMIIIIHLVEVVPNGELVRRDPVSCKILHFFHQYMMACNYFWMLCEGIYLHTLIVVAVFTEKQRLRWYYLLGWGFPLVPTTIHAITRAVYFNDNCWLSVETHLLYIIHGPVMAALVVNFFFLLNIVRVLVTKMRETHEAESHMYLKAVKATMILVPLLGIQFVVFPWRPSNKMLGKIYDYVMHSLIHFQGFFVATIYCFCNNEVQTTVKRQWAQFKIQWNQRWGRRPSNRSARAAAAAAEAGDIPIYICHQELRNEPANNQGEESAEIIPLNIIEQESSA


Columns and labels:
[1] = molecular target: T1, human calcitonin receptor; test: ratio of IC50 at hCTR over IC50 at hAmylin-R (SPA competition assays)
Procedure, shortened: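 IC₅₀ values were derived by one-site competition analysis of SPA counts. Cell membranes (35 ng/μL) with SPA beads were incubated with test compounds for 120 min at 25° C in Hepes buffer, pH 7.4, containing CaCl2, MgCl₂, OA and Tween20.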

[2] = molecular target: T1, human calcitonin receptor; test: SPA competition against 125I-calcitonin, membranes of BHK cells with human calcitonin receptor (Assay VII)
Procedure, shortened: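 BHK hCTR membranes 35 ng/μL + SPA beads 0.05 mg/well; buffer 50 mM Hepes pH 7.4, 1 mM CaCl2, 5 mM MgCl₂, 0.1% OA, 0.02% Tween20. 120 min, 25° C., shaking. Scintillation count; IC50 by one-site binding competition.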

Binder	Ratio hCT/hAmylin binding [1]	IC50 [2] [nM]
K([γGlu-γGlu-C20 diacid])CNTATCATQRLADFLRHSSPNFGAIPSSTNVGPETY-NH2 (disulfide 2-7)	49.8	8.56
K([γGlu-γGlu-C20 diacid])CNTATCATQRLADFLRHSSPNFGAIPSSTNVGPRTY-NH2 (disulfide 2-7, also called compound 130)	280	127
K([γGlu-γGlu-C20 diacid])CNTATCATQRLAEFLRHSSPNFGAIPSSTNVGRETY-NH2 (disulfide 2-7; N-terminus assumed; SMILES CC[C@H](C)[C@H](NC(=O)[C@H](C)NC(=O)CNC(=O)[C@H](Cc1ccccc1)NC(=O)[C@H](CC(N)=O)NC(=O)[C@@H]1CCCN1C(=O)[C@H](CO)NC(=O)[C@H](CO)NC(=O)[C@H](Cc1c[nH]cn1)NC(=O)[C@H](CCCNC(=N)N)NC(=O)[C@H](CC(C)C)NC(=O)[C@H](Cc1ccccc1)NC(=O)[C@H](CCC(=O)O)NC(=O)[C@H](C)NC(=O)[C@H](CC(C)C)NC(=O)[C@H](CCCNC(=N)N)NC(=O)[C@H](CCC(N)=O)NC(=O)[C@@H](NC(=O)[C@H](C)NC(=O)[C@@H]1CSSC[C@H](NC(=O)[C@@H](N)CCCCNC(=O)CC[C@H](NC(=O)CC[C@H](NC(=O)CCCCCCCCCCCCCCCCCCC(=O)O)C(=O)O)C(=O)O)C(=O)N[C@@H](CC(N)=O)C(=O)N[C@@H]([C@@H](C)O)C(=O)N[C@@H](C)C(=O)N[C@@H]([C@@H](C)O)C(=O)N1)[C@@H](C)O)C(=O)N1CCC[C@H]1C(=O)N[C@@H](CO)C(=O)N[C@@H](CO)C(=O)N[C@H](C(=O)N[C@@H](CC(N)=O)C(=O)N[C@H](C(=O)NCC(=O)N[C@@H](CCCNC(=N)N)C(=O)N[C@@H](CCC(=O)O)C(=O)N[C@H](C(=O)N[C@@H](Cc1ccc(O)cc1)C(N)=O)[C@@H](C)O)C(C)C)[C@@H](C)O)	14.7	14.1
K([γGlu-γGlu-C20 diacid])CNTATCATQRLANFLRHSSPNFGAIPSSTPVGPRTY-NH2 (disulfide 2-7; N-terminus assumed; SMILES CC[C@H](C)[C@H](NC(=O)[C@H](C)NC(=O)CNC(=O)[C@H](Cc1ccccc1)NC(=O)[C@H](CC(N)=O)NC(=O)[C@@H]1CCCN1C(=O)[C@H](CO)NC(=O)[C@H](CO)NC(=O)[C@H](Cc1c[nH]cn1)NC(=O)[C@H](CCCNC(=N)N)NC(=O)[C@H](CC(C)C)NC(=O)[C@H](Cc1ccccc1)NC(=O)[C@H](CC(N)=O)NC(=O)[C@H](C)NC(=O)[C@H](CC(C)C)NC(=O)[C@H](CCCNC(=N)N)NC(=O)[C@H](CCC(N)=O)NC(=O)[C@@H](NC(=O)[C@H](C)NC(=O)[C@@H]1CSSC[C@H](NC(=O)[C@@H](N)CCCCNC(=O)CC[C@H](NC(=O)CC[C@H](NC(=O)CCCCCCCCCCCCCCCCCCC(=O)O)C(=O)O)C(=O)O)C(=O)N[C@@H](CC(N)=O)C(=O)N[C@@H]([C@@H](C)O)C(=O)N[C@@H](C)C(=O)N[C@@H]([C@@H](C)O)C(=O)N1)[C@@H](C)O)C(=O)N1CCC[C@H]1C(=O)N[C@@H](CO)C(=O)N[C@@H](CO)C(=O)N[C@H](C(=O)N1CCC[C@H]1C(=O)N[C@H](C(=O)NCC(=O)N1CCC[C@H]1C(=O)N[C@@H](CCCNC(=N)N)C(=O)N[C@H](C(=O)N[C@@H](Cc1ccc(O)cc1)C(N)=O)[C@@H](C)O)C(C)C)[C@@H](C)O)	48.6	42.8

Now those with a lower IC50 [2], led by results:

Ratio hCT/hAmylin binding [1]	IC50 [2] [nM]	Binder
24.8	2.04	K([γGlu-C20 diacid])CNTATCATQRLAHFLRHSSPNFGAIPSSTPVGPNTY-NH2 (disulfide 2-7; N-terminus assumed; SMILES CC[C@H](C)[C@H](NC(=O)[C@H](C)NC(=O)CNC(=O)[C@H](Cc1ccccc1)NC(=O)[C@H](CC(N)=O)NC(=O)[C@@H]1CCCN1C(=O)[C@H](CO)NC(=O)[C@H](CO)NC(=O)[C@H](Cc1c[nH]cn1)NC(=O)[C@H](CCCNC(=N)N)NC(=O)[C@H](CC(C)C)NC(=O)[C@H](Cc1ccccc1)NC(=O)[C@H](Cc1c[nH]cn1)NC(=O)[C@H](C)NC(=O)[C@H](CC(C)C)NC(=O)[C@H](CCCNC(=N)N)NC(=O)[C@H](CCC(N)=O)NC(=O)[C@@H](NC(=O)[C@H](C)NC(=O)[C@@H]1CSSC[C@H](NC(=O)[C@@H](N)CCCCNC(=O)CC[C@H](NC(=O)CCCCCCCCCCCCCCCCCCC(=O)O)C(=O)O)C(=O)N[C@@H](CC(N)=O)C(=O)N[C@@H]([C@@H](C)O)C(=O)N[C@@H](C)C(=O)N[C@@H]([C@@H](C)O)C(=O)N1)[C@@H](C)O)C(=O)N1CCC[C@H]1C(=O)N[C@@H](CO)C(=O)N[C@@H](CO)C(=O)N[C@H](C(=O)N1CCC[C@H]1C(=O)N[C@H](C(=O)NCC(=O)N1CCC[C@H]1C(=O)N[C@@H](CC(N)=O)C(=O)N[C@H](C(=O)N[C@@H](Cc1ccc(O)cc1)C(N)=O)[C@@H](C)O)C(C)C)[C@@H](C)O)
1.2	0.157	K([γGlu-C20 diacid])CNTATCATQRLAHFLRHSSPNFGAIPSSTNVGPNTP-NH2 (disulfide 2-7; N-terminus assumed; SMILES CC[C@H](C)[C@H](NC(=O)[C@H](C)NC(=O)CNC(=O)[C@H](Cc1ccccc1)NC(=O)[C@H](CC(N)=O)NC(=O)[C@@H]1CCCN1C(=O)[C@H](CO)NC(=O)[C@H](CO)NC(=O)[C@H](Cc1c[nH]cn1)NC(=O)[C@H](CCCNC(=N)N)NC(=O)[C@H](CC(C)C)NC(=O)[C@H](Cc1ccccc1)NC(=O)[C@H](Cc1c[nH]cn1)NC(=O)[C@H](C)NC(=O)[C@H](CC(C)C)NC(=O)[C@H](CCCNC(=N)N)NC(=O)[C@H](CCC(N)=O)NC(=O)[C@@H](NC(=O)[C@H](C)NC(=O)[C@@H]1CSSC[C@H](NC(=O)[C@@H](N)CCCCNC(=O)CC[C@H](NC(=O)CCCCCCCCCCCCCCCCCCC(=O)O)C(=O)O)C(=O)N[C@@H](CC(N)=O)C(=O)N[C@@H]([C@@H](C)O)C(=O)N[C@@H](C)C(=O)N[C@@H]([C@@H](C)O)C(=O)N1)[C@@H](C)O)C(=O)N1CCC[C@H]1C(=O)N[C@@H](CO)C(=O)N[C@@H](CO)C(=O)N[C@H](C(=O)N[C@@H](CC(N)=O)C(=O)N[C@H](C(=O)NCC(=O)N1CCC[C@H]1C(=O)N[C@@H](CC(N)=O)C(=O)N[C@H](C(=O)N1CCC[C@H]1C(N)=O)[C@@H](C)O)C(C)C)[C@@H](C)O)
0.5	0.117	K([γGlu-C20 diacid])CNTATCATQRLAEFLRHSSPNFGAIPSSTNVGPNTP-NH2 (disulfide 2-7; N-terminus assumed; SMILES CC[C@H](C)[C@H](NC(=O)[C@H](C)NC(=O)CNC(=O)[C@H](Cc1ccccc1)NC(=O)[C@H](CC(N)=O)NC(=O)[C@@H]1CCCN1C(=O)[C@H](CO)NC(=O)[C@H](CO)NC(=O)[C@H](Cc1c[nH]cn1)NC(=O)[C@H](CCCNC(=N)N)NC(=O)[C@H](CC(C)C)NC(=O)[C@H](Cc1ccccc1)NC(=O)[C@H](CCC(=O)O)NC(=O)[C@H](C)NC(=O)[C@H](CC(C)C)NC(=O)[C@H](CCCNC(=N)N)NC(=O)[C@H](CCC(N)=O)NC(=O)[C@@H](NC(=O)[C@H](C)NC(=O)[C@@H]1CSSC[C@H](NC(=O)[C@@H](N)CCCCNC(=O)CC[C@H](NC(=O)CCCCCCCCCCCCCCCCCCC(=O)O)C(=O)O)C(=O)N[C@@H](CC(N)=O)C(=O)N[C@@H]([C@@H](C)O)C(=O)N[C@@H](C)C(=O)N[C@@H]([C@@H](C)O)C(=O)N1)[C@@H](C)O)C(=O)N1CCC[C@H]1C(=O)N[C@@H](CO)C(=O)N[C@@H](CO)C(=O)N[C@H](C(=O)N[C@@H](CC(N)=O)C(=O)N[C@H](C(=O)NCC(=O)N1CCC[C@H]1C(=O)N[C@@H](CC(N)=O)C(=O)N[C@H](C(=O)N1CCC[C@H]1C(N)=O)[C@@H](C)O)C(C)C)[C@@H](C)O)
